In article PMC5477782 (Journal of internal medicine, 2017):

T1: native human haptoglobin β subunit (human, UniProt P00738 162-406)
T1 sequence (looked up): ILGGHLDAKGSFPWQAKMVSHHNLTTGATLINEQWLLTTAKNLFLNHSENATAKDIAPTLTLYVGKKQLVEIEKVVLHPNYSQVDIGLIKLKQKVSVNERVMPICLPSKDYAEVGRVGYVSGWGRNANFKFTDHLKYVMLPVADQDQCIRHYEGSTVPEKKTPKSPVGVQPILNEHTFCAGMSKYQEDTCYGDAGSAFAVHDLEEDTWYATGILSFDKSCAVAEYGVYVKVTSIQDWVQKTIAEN

T2: recombinant human haptoglobin β subunit (human, UniProt P00738 162-406)
T2 sequence (looked up): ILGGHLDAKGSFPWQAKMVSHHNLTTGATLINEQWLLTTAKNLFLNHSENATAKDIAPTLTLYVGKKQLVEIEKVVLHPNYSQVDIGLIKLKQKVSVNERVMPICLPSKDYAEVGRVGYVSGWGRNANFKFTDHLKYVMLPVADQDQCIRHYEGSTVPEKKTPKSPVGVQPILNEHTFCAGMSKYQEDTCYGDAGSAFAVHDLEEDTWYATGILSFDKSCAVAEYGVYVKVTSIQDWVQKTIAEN


How the values were obtained:
Assay in all cases: SPR
[1] = biological target: T1, native human haptoglobin β subunit
[2] = biological target: T2, recombinant human haptoglobin β subunit
[3] = biological target: recombinant human CD163 protein (human, UniProt Q86VB7-1 42-1050)
Sequence of recombinant human CD163 protein (Q86VB7 42-1050): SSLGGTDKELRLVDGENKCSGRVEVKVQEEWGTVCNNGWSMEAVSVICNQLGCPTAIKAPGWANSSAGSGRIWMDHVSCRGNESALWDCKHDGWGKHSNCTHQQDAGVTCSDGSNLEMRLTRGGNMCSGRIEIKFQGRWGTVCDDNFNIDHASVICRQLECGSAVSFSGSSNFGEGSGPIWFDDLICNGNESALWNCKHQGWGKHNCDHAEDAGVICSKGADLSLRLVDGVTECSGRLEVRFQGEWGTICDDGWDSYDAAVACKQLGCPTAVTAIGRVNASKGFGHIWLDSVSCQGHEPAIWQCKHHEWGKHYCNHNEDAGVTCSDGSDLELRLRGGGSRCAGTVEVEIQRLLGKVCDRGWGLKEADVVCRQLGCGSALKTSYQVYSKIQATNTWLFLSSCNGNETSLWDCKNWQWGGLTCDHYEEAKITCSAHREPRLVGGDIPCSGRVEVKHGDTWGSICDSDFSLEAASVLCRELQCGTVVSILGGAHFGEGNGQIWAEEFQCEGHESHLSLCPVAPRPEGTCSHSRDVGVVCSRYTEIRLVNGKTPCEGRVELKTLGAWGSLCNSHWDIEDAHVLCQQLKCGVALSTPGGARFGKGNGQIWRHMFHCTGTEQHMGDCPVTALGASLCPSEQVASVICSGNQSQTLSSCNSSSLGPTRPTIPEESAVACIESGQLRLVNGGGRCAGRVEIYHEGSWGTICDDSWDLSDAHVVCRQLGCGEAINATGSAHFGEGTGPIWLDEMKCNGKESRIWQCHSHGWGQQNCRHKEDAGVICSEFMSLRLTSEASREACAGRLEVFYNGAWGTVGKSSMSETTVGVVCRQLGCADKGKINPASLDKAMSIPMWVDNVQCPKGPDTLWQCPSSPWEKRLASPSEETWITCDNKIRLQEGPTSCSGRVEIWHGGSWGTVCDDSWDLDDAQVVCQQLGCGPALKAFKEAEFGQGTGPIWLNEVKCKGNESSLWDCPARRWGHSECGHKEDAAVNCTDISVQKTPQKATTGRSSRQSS

Kd [1] [nM] | Kd [2] [nM] | Kd [3] [nM] | Binder
30 | 29 |  | recombinant disulfide HMGB1 (natural protein, UniProt P09429 1-215, looked up, disulfide redox form (cysteines not named)) MGKGDPKKPRGKMSSYAFFVQTCREEHKKKHPDASVNFSEFSKKCSERWKTMSAKEKGKFEDMAKADKARYEREMKTYIPPKGETKKKFKDPNAPKRPPSAFFLFCSEYRPKIKGEHPGLSIGDVAKKLGEMWNNTAADDKQPYEKKAAKLKEKYEKDIAAYRAKGKPDAAKKGVVKAEKSKKKKEEEEDEEDEEDEEEEEDEEDEDEEEDDDDE
 |  | 70 | HMGB1-haptoglobin β complexes (1:1 molar ratio) (complex) chain 1: MGKGDPKKPRGKMSSYAFFVQTCREEHKKKHPDASVNFSEFSKKCSERWKTMSAKEKGKFEDMAKADKARYEREMKTYIPPKGETKKKFKDPNAPKRPPSAFFLFCSEYRPKIKGEHPGLSIGDVAKKLGEMWNNTAADDKQPYEKKAAKLKEKYEKDIAAYRAKGKPDAAKKGVVKAEKSKKKKEEEEDEEDEEDEEEEEDEEDEDEEEDDDDE chain 2: ILGGHLDAKGSFPWQAKMVSHHNLTTGATLINEQWLLTTAKNLFLNHSENATAKDIAPTLTLYVGKKQLVEIEKVVLHPNYSQVDIGLIKLKQKVSVNERVMPICLPSKDYAEVGRVGYVSGWGRNANFKFTDHLKYVMLPVADQDQCIRHYEGSTVPEKKTPKSPVGVQPILNEHTFCAGMSKYQEDTCYGDAGSAFAVHDLEEDTWYATGILSFDKSCAVAEYGVYVKVTSIQDWVQKTIAEN
